Source: the supplement of paper PMC12764529
± gives the half width of the 95% confidence interval.

Experiments:
[1] = folding stability dG unfold from trypsin proteolysis; higher = more stable
Method in brief: (§1)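 Designed mini-proteins with no cysteine and under 80 residues were kept only if AlphaFold2 dimer inter-PAE was above 15. In a PA-tagged cDNA display construct, they were digested with trypsin and chymotrypsin and then sequenced. K50 was inferred by Bayesian fitting of counts, and unfolding free energy was derived per protease or combined against a sequence-predicted unfolded-state K50 and a shared folded-state K50.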

[2] = folding stability dG unfold from chymotrypsin proteolysis; higher = more stable
Method in brief: as §1

[3] = folding stability dG unfold (combined trypsin and chymotrypsin); higher = more stable
Method in brief: as §1

Row | Sequence | folding stability dG unfold [1] | folding stability dG unfold [2] | folding stability dG unfold [3]
1 | SAGGSAGGSAGLKPGDEVLVISIEVETEIKLEEKDGKLTLETETKVKITITRVKLPEGAESAGGSAGGSAGG [r17_186_TrROS_Hall] | 3.79 ± 0.22 kcal/mol | 3.01 ± 0.21 kcal/mol | 3.82 ± 0.25 kcal/mol
2 | SAGGSAGGSAGLKVIEADTLEEVLEAIKEAPKDEPLLLILRNPSTGVDSVLLFDGDKIVLGGSAGGSAGGSA [r18_407_TrMRF] | 1.09 ± 0.029 kcal/mol | 0.595 ± 0.09 kcal/mol | 0.909 ± 0.06 kcal/mol
3 | SAGGSAGGSAGLPVLRPLIIPGPSVLRILEVRLREDGSVEVISEETIPLPPPIPSPSELTSAGGSAGGSAGG [r11_843_TrMRF] | 0.763 ± 0.038 kcal/mol | 0.994 ± 0.16 kcal/mol | 0.905 ± 0.13 kcal/mol
4 | SAGGSAGGSAGMEEIEIKFPENGKPLEIYRVPDGSAIIRNPGDGHYFQMDGNKIEIVGPLSAGGSAGGSAGG [r17_476_TrROS] | 0.861 ± 0.048 kcal/mol | 0.353 ± 0.13 kcal/mol | 0.703 ± 0.18 kcal/mol
5 | SAGGSAGGSAGMELTLDEIRALLPAEEIEEVEVVEVDGKLVIRVKRKDGKEVRELVIEKDSAGGSAGGSAGG [r17_374_TrROS_Hall] | 1.63 ± 0.065 kcal/mol | 1.67 ± 0.054 kcal/mol | 1.73 ± 0.13 kcal/mol
6 | SAGGSAGGSAGMEPVYLLVKRTNPATGGREEALLAVPAEDLDAVREALEALPGVEEIEEISAGGSAGGSAGG [r17_438_TrMRF] | 0.283 ± 0.05 kcal/mol | 1.18 ± 0.079 kcal/mol | 0.886 ± 0.079 kcal/mol
7 | SAGGSAGGSAGMETPVLYNVTVTPPDGSTTTYTVPEGLSEEEIRALLNVPASDTITFSPVSAGGSAGGSAGG [r11_340_JUSTAS] | 1.87 ± 0.042 kcal/mol | 2.02 ± 0.029 kcal/mol | 1.99 ± 0.033 kcal/mol
8 | SAGGSAGGSAGMEVFKSADGKRLLIRAKNGKVAEFDVETGELKFSKENLSPEDIEIVEVPSAGGSAGGSAGG [r17_174_TrROS_Hall] | 0.385 ± 0.2 kcal/mol | 1.05 ± 0.14 kcal/mol | 0.72 ± 0.22 kcal/mol
9 | SAGGSAGGSAGMIKKVKISRTSDGTVTRTTEYLETDKPGVPKVVTTEVETVTLAPSEPLFSAGGSAGGSAGG [r11_517_JUSTAS] | -1.11 ± 0.51 kcal/mol | 0.911 ± 0.039 kcal/mol | 0.507 ± 0.084 kcal/mol
10 | SAGGSAGGSAGMINPKDVVEVSSSTDPNSSSGTLTVTLKDGKEITISYSSSSEAEAALLGSAGGSAGGSAGG [r11_339_JUSTAS] | 1.1 ± 0.061 kcal/mol | 1.52 ± 0.12 kcal/mol | 1.44 ± 0.2 kcal/mol
11 | SAGGSAGGSAGMIVFTLPDGGLALVLNIEYELEPDEDGNLIIRPRISLSIFPVPADFPILSAGGSAGGSAGG [r17_480_TrMRF] | 3.2 ± 0.09 kcal/mol | 4.51 ± 0.068 kcal/mol | 4.19 ± 0.12 kcal/mol
12 | SAGGSAGGSAGMIVVKSKEEIEALKKAGYEIEVKEVTVYDPKTGKKKDKFLVIEIKPKKKSAGGSAGGSAGG [r11_168_TrROS_Hall] | 1.25 ± 0.15 kcal/mol | 1.28 ± 0.06 kcal/mol | 1.29 ± 0.17 kcal/mol
13 | SAGGSAGGSAGMKITIDGKVAEIEEVEVDGKLYYFIRVEGRLYVFDVETGEIREISPEDLSAGGSAGGSAGG [r11_9_TrROS_Hall] | 3.14 ± 0.074 kcal/mol | 4.16 ± 0.033 kcal/mol | 3.91 ± 0.054 kcal/mol
14 | SAGGSAGGSAGMKITVTITTTTTVSVEPPESSAAVGPVVYRQTLTLNLSPEEAAALLKKSSAGGSAGGSAGG [r17_283_JUSTAS] | 1.17 ± 0.035 kcal/mol | 1.16 ± 0.14 kcal/mol | 1.25 ± 0.11 kcal/mol
15 | SAGGSAGGSAGMKPGEKVLLVKIKIKNENGEEETILVEMSLEELKKLLEEENIEVEILELSAGGSAGGSAGG [r17_313_TrROS_Hall] | 3.88 ± 0.17 kcal/mol | 2.27 ± 0.039 kcal/mol | 3.03 ± 0.1 kcal/mol
16 | SAGGSAGGSAGMKPGQKEEVKIPIMGMIPVDGRTFMIRFDITVKAPGAIKIELDIIPGFPSAGGSAGGSAGG [r11_551_TrROS] | 3.26 ± 0.16 kcal/mol | 4.73 ± 0.29 kcal/mol | 4.23 ± 0.21 kcal/mol

Row | Sequence | folding stability dG unfold [1] | folding stability dG unfold [2] | folding stability dG unfold [3]
17 | SAGGSAGGSAGMKTVLSTKTEPSPEDLTVTTVTLGDKVYTIIYDPKTGKPLKVIPAGEFKSAGGSAGGSAGG [r11_851_JUSTAS] | -0.0393 ± 0.1 kcal/mol | 1.25 ± 0.093 kcal/mol | 0.857 ± 0.12 kcal/mol
18 | SAGGSAGGSAGMKVTATSLNPASGTVTVKFSDGTTRTFSSVEALKAAIPEGVPIEIAPAVSAGGSAGGSAGG [r17_295_JUSTAS] | 2.46 ± 0.13 kcal/mol | 2.297 ± 0.012 kcal/mol | 2.36 ± 0.051 kcal/mol
19 | SAGGSAGGSAGMKYKATIPLPDGTTLTYESEDPEKAIEEITKETGVPKSKITITPIPELESAGGSAGGSAGG [r17_169_JUSTAS] | 0.33 ± 0.03 kcal/mol | 0.709 ± 0.096 kcal/mol | 0.598 ± 0.097 kcal/mol
20 | SAGGSAGGSAGMLETIELPDGKRVRYDPVTGEWFVELDPELEEEVRERLDPDLPVRFEEVSAGGSAGGSAGG [r11_374_JUSTAS] | 1.74 ± 0.081 kcal/mol | 1.54 ± 0.063 kcal/mol | 1.62 ± 0.057 kcal/mol
21 | SAGGSAGGSAGMLRVRAVIKRPGGELEELTDVTEEEVLAYAREKGWEIEELKVISPSEKPSAGGSAGGSAGG [r11_283_JUSTAS] | 1.23 ± 0.054 kcal/mol | 1.91 ± 0.12 kcal/mol | 1.64 ± 0.13 kcal/mol
22 | SAGGSAGGSAGMLVYRTVVTTEVLETETTSFPTPEGPYVTTTTVTVKTTVTVEKLTPELLSAGGSAGGSAGG [r11_24_JUSTAS] | 2.67 ± 0.14 kcal/mol | 2.61 ± 0.041 kcal/mol | 2.75 ± 0.2 kcal/mol
23 | SAGGSAGGSAGMNPVVIETTETLPNGTVVRTTEIVDPSNPDKVVSTKTEISSVPSNAPLLSAGGSAGGSAGG [r17_299_JUSTAS] | 0.342 ± 0.082 kcal/mol | 0.113 ± 0.043 kcal/mol | 0.222 ± 0.11 kcal/mol
24 | SAGGSAGGSAGMPIKTLKTTLVSVEKEPPGEGSYITTKSVTEFPDGSKSVTTTTVPASLLSAGGSAGGSAGG [r17_268_JUSTAS] | -0.653 ± 0.59 kcal/mol | -0.228 ± 0.27 kcal/mol | -0.576 ± 0.44 kcal/mol
25 | SAGGSAGGSAGMPLKVTVLSTSPLLESSELVTVKITPPDGSVVVIPSSVSLEEVEKLLLSSAGGSAGGSAGG [r17_353_JUSTAS] | 0.784 ± 0.024 kcal/mol | 0.05 ± 0.07 kcal/mol | 0.558 ± 0.051 kcal/mol
26 | SAGGSAGGSAGMPTLKIKVLVRNEETGEWQEVEIELPEGMTLEELLAALPPEQVERVEPVSAGGSAGGSAGG [r11_386_TrROS_Hall] | 2.42 ± 0.15 kcal/mol | 3.07 ± 0.059 kcal/mol | 2.85 ± 0.073 kcal/mol
27 | SAGGSAGGSAGMPVITVDVYEDDNTYTITITLSDGTPVVVTVTSPDTPVEEAVAAVIAALSAGGSAGGSAGG [r11_313_JUSTAS] | 3.45 ± 0.15 kcal/mol | 2.77 ± 0.16 kcal/mol | 3.16 ± 0.16 kcal/mol
28 | SAGGSAGGSAGMRIRAEVVEISPPGAVIVLRYEIEFPLPDDEPVRLEFDAVLYIPVPPEASAGGSAGGSAGG [r11_689_TrMRF] | 2.63 ± 0.12 kcal/mol | 4.16 ± 0.098 kcal/mol | 3.69 ± 0.13 kcal/mol
29 | SAGGSAGGSAGMRLVTFTVPGSAISVSTPGGATVVSVEKLPGDLVRVTVEIPEGAPPGLQSAGGSAGGSAGG [r17_48_JUSTAS] | 1.12 ± 0.013 kcal/mol | 1.76 ± 0.029 kcal/mol | 1.56 ± 0.046 kcal/mol
30 | SAGGSAGGSAGMSSVAPITTPDGKVAESVTVTEETLPNGEVVTKITTTLPDGTVVTTTLESAGGSAGGSAGG [r11_810_JUSTAS] | 1.59 ± 0.066 kcal/mol | 0.997 ± 0.051 kcal/mol | 1.3 ± 0.1 kcal/mol
31 | SAGGSAGGSAGMSVRVIEGDPALAKKFIEEHPDEIVSVEVTPHPETGTYTYVFVFKGPPKSAGGSAGGSAGG [r17_79_TrMRF] | 2.33 ± 0.086 kcal/mol | 2.44 ± 0.041 kcal/mol | 2.39 ± 0.091 kcal/mol
